PMC12586603

Biological target: T1, 3xFLAG-HSF1, Q00613
T1 chain: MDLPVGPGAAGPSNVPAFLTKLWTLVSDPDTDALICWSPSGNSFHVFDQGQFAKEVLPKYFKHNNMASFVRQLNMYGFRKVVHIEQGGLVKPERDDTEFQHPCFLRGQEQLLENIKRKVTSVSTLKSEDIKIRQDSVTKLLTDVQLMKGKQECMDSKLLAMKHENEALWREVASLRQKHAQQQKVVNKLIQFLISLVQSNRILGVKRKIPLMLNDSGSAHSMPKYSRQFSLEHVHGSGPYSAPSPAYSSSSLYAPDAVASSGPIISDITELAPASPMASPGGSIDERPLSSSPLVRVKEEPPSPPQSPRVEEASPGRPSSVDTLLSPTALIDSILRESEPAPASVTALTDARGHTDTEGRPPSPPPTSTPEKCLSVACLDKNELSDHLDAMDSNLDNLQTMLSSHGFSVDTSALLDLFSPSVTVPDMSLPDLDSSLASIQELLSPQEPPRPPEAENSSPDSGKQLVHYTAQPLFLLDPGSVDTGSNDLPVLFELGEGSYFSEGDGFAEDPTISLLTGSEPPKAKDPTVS
Assay: cross-linking; cell extracts from transfected 293T cells, in vitro cross-linking with 2 mM ethylene glycol bis(succinimidyl succinate) (EGS), immunoblot; with or without DBC1 overexpression
Conditions: remark: other sources report otherwise

B1: 3xFLAG-HSF1, Q00613 1-529 (natural protein)
chain: T1 chain
With B1 the stoichiometry N was 3.
